From patent US20250179205A1 (Hoffmann-La Roche, published 2025)
Numbering of substitutions follows the chain as printed. One block for each binder: values may come before it.

Tests used:
[1] = molecular target: T1, human CD40 (human, UniProt P25942 21-277); experiment: cell-based or functional assay
[2] = molecular target: T1, human CD40; experiment: cell-based or functional assay; remark: listed apart in the source
[3] = molecular target: T2, human fibroblast activation protein (huFAP) (human, UniProt Q12884 1-760); experiment: flow cytometry on NIH/3T3-huFAP clone 19 cells, PE-labelled anti-human IgG Fcgamma F(ab')2 secondary, MFI baseline corrected
T2 construct: expressed on transfected NIH/3T3-huFAP clone 19 cells; also called human FAP
Description: (§1) NIH/3T3-huFAP clone 19 and NIH/3T3-mFAP clone 26 were generated by the transfection of the mouse embryonic fibroblast NIH/3T3 cell line (ATCC CRL-1658) with the expression vector pETR4921 to express under 1.5 μg/mL Puromycin selection huFAP or mFAP, respectively.
NIH/3T3-huFAP, NIH/3T3-mFAP or NIH/3T3-wt cells were cultured with 1× Dulbecco's Modified Eagle's Medium (DMEM) (Gibco, Cat. No. 42430-025) supplemented with 10% Fetal Bovine Serum (FBS) (life technologies, Cat. No. 16140, Lot No. 1797306A). For the NIH/3T3-huFAP and NIH/3T3-mFAP cells 1.5 μg/mL Puromycin (Gibco, Cat. No. A11138-03) was added to the medium for selection of FAP-expressing cells. NIH/3T3 cells were removed from the plate by using enzyme-free Cell Dissociation Buffer (Gibco, Cat. No. 13151014). 0.3×10⁵ NIH/3T3-huFAP clone 19, NIH/3T3-mFAP clone 26 or NIH/3T3-wt were added in 200 μl of 1×DMEM 10% FBS to each well of a round-bottom 96-well plate (Greiner Bio-One, CELLSTAR®, Cat. No. 650185). Plates were centrifuged 5 minutes at 1700 rpm and supernatants were flicked off. Cells were washed once with 200 μL of 4° C. cold FACS buffer (eBioscience, Cat. No. 00-4222-26). All samples were resuspended in 50 μL/well of 4° C. cold FACS buffer containing the bispecific antigen binding molecules (primary antibody) or isotype control antibody DP47 at the indicated range of concentrations (in duplicates) and incubated for 120 minutes at 4° C. Afterwards the cells were washed three times with 200 μL 4° C. cold FACS buffer. Cells were further stained with 25 μL/well of 4° C. cold secondary antibody solution (1:50 dilution of secondary antibody) containing R-Phycoerythrin (PE) conjugated AffiniPure F(ab′)₂ Fragment Goat Anti-Human IgG, Fcγ Fragment Specific (Jackson ImmunoResearch, Cat. No. 109-116-098) and incubated for 60 minutes at 4° C. in the dark. Cells were washed with 200 μl FACS buffer and resuspended in 85 μL/well FACS-buffer containing 0.2 μg/mL DAPI (Roche, Cat. No. 10236276001) and acquired the same day using 5-laser LSR-Fortessa (BD Bioscience with DIVA software). […]

[4] = molecular target: T3, mouse fibroblast activation protein (mFAP) (mouse, UniProt P97321 1-761); experiment: flow cytometry on NIH/3T3-mFAP cells (3T3_mFAP), PE-labelled anti-human IgG Fcgamma F(ab')2 secondary, MFI baseline corrected
T3 construct: expressed on transfected NIH/3T3-mFAP clone 26 cells; also called murine FAP; mouse FAP
T3 sequence (P97321 whole entry): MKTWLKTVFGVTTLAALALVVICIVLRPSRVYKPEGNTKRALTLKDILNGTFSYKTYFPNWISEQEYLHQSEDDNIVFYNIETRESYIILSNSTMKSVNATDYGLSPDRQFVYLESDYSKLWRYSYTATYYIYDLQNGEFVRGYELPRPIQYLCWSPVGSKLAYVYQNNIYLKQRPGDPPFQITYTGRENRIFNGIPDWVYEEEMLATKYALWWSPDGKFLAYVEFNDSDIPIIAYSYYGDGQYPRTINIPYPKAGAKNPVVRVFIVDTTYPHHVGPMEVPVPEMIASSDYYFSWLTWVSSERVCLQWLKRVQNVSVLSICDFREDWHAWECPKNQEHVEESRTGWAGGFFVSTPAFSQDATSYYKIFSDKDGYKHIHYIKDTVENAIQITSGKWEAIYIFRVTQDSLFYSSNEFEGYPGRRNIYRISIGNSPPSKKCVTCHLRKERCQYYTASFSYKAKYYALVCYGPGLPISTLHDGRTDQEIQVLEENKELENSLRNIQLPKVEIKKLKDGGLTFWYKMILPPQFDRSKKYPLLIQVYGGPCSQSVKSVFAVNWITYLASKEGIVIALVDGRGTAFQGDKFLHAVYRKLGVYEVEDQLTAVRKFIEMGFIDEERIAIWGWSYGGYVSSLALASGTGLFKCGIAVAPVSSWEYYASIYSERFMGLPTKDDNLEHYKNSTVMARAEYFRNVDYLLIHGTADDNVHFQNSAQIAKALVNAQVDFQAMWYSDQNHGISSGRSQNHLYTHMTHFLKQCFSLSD
Description: as §1
(§2) NIH/3T3-huFAP, NIH/3T3-mFAP or NIH/3T3-wt cells were cultured with 1× Dulbecco's Modified Eagle's Medium (DMEM) (Gibco, Cat. No. 42430-025) supplemented with 10% Fetal Bovine Serum (FBS) (life technologies, Cat. No. 16140, Lot No. 1797306A). For the NIH/3T3-huFAP and NIH/3T3-mFAP cells 1.5 μg/mL Puromycin (Gibco, Cat. No. A11138-03) was added to the medium for selection of FAP-expressing cells. NIH/3T3 cells were removed from the plate by using enzyme-free Cell Dissociation Buffer (Gibco, Cat. No. 13151014). 0.3×10⁵ NIH/3T3-huFAP clone 19, NIH/3T3-mFAP clone 26 or NIH/3T3-wt were added in 200 μl of 1×DMEM 10% FBS to each well of a round-bottom 96-well plate (Greiner Bio-One, CELLSTAR®, Cat. No. 650185). Plates were centrifuged 5 minutes at 1700 rpm and supernatants were flicked off. Cells were washed once with 200 μL of 4° C. cold FACS buffer (eBioscience, Cat. No. 00-4222-26). All samples were resuspended in 50 μL/well of 4° C. cold FACS buffer containing the bispecific antigen binding molecules (primary antibody) or isotype control antibody DP47 at the indicated range of concentrations (in duplicates) and incubated for 120 minutes at 4° C. Afterwards the cells were washed three times with 200 μL 4° C. cold FACS buffer. Cells were further stained with 25 μL/well of 4° C. cold secondary antibody solution (1:50 dilution of secondary antibody) containing R-Phycoerythrin (PE) conjugated AffiniPure F(ab′)₂ Fragment Goat Anti-Human IgG, Fcγ Fragment Specific (Jackson ImmunoResearch, Cat. No. 109-116-098) and incubated for 60 minutes at 4° C. in the dark. Cells were washed with 200 μl FACS buffer and resuspended in 85 μL/well FACS-buffer containing 0.2 μg/mL DAPI (Roche, Cat. No. 10236276001) and acquired the same day using 5-laser LSR-Fortessa (BD Bioscience with DIVA software). Data analysis was performed using the FlowJo version 10 software (FlowJo LLC).

[5] = molecular target: T1, human CD40; experiment: flow cytometry, Daudi cells, PE anti-human Fc F(ab')2
Description: The binding to cell surface CD40 was tested using Daudi cells, a human B lymphoblast cell line with high expression levels of human CD40 (ATCC CCL-213). Daudi cells were cultured with 1× Dulbecco's Modified Eagle's Medium (DMEM) (Gibco, Cat. No. 42430-025) supplemented with 10% Fetal Bovine Serum (FBS) (life technologies, Cat. No. 16140, Lot No. 1797306A). 0.3×10⁵ Daudi cells were added in 200 μl of 1×DMEM with 10% FBS to each well of a round-bottom 96-well plate (Greiner Bio-One, CELLSTAR®, Cat. No. 650185). Plates were centrifuged 5 minutes at 1700 rpm and supernatants were flicked off. Cells were washed once with 200 μL of 4° C. cold FACS buffer (eBioscience, Cat. No. 00-4222-26). All samples were resuspended in 50 μL/well of 4° C. cold FACS buffer containing the bispecific antigen binding molecules (primary antibody) or isotype control antibody DP47 at the indicated range of concentrations (in duplicates) and incubated for 120 minutes at 4° C. Afterwards the cells were washed three times with 200 μL 4° C. cold FACS buffer. Cells were further stained with 25 μL/well of 4° C. cold secondary antibody solution (1:50 dilution of secondary antibody) containing R-Phycoerythrin (PE) conjugated AffiniPure F(ab′)₂ Fragment Goat Anti-Human IgG, Fcγ Fragment Specific (Jackson ImmunoResearch, Cat. No. 109-116-098) and incubated for 60 minutes at 4° C. in the dark. Cells were washed with 200 μl FACS buffer and resuspended in 85 μL/well FACS-buffer containing 0.2 μg/mL DAPI (Roche, Cat. No. 10236276001) and acquired the same day using a 5-laser LSR-Fortessa (BD Bioscience with DIVA software). Data analysis was performed using the FlowJo version 10 software (FlowJo LLC).

[6] = molecular target: T2, human fibroblast activation protein …; experiment: flow cytometry, NIH/3T3-huFAP clone 19 cells, PE anti-human Fc F(ab')2
Description: as §1, §2

[7] = molecular target: T4, His-tagged human dimeric FAP (recombinant FAP_ECD) (human, UniProt Q12884 27-760); experiment: SPR (Biacore T200), His-tagged dimeric huFAP ECD captured by anti-His, antibody as analyte, 1:1 fit (avidity)
T4 construct: also called hu FAP ectodomain + poly-lys-tag + his6-tag
Description: The capacity of the bispecific constructs to bind human FAP was assessed by surface plasmon resonance (SPR). All SPR experiments were performed on a BIACORE® T200 (BIACORE®) at 25° C. with HBS-EP as running buffer (0.01 M HEPES pH 7.4, 0.15 M NaCl, 3 mM EDTA, 0.005% Surfactant P20, (BIACORE®).
His-tagged human dimeric FAP (recombinant FAP_ECD) was captured on a CM5 chip (GE Healthcare) immobilized with anti-His antibody (Qiagen Cat. No. 34660) by injection of 500 nM huFAP for 60 s at a flow rate of 10 uL/min, 10 nM murine FAP for 20 s at a flow rate of 20 uL/min and 10 nM cynoFAP for 20 s at a flow rate of 20 uL/min. Immobilization levels for the anti-His antibody of up to 18000 resonance units (RU) were used. Following the capture step, the bispecific antibodies as well as control molecules were immediately passed over the chip surface at a concentration ranging from 0.78-100 nM with a flow rate of […] for 280 s and a dissociation phase of 180 s. Bulk refractive index differences were corrected for by subtracting the response obtained in a reference flow cell, where no FAP was immobilized. Avidity was determined using the Langmuir 1:1 curve fitting. For bivalent binding the same 1:1 fitting was used leading to an apparent KD value.

T1 sequence (P25942 21-277 limits assumed): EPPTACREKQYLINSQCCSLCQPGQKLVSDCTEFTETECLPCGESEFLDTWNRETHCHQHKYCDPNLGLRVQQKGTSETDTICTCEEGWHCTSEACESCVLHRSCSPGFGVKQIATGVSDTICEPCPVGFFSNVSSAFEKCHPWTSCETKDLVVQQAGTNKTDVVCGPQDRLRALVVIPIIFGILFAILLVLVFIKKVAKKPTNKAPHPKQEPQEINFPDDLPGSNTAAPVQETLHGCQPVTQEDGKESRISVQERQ

- EC50, activation of HEK-Blue CD40L cells (SEAP) with murine FAP-coated Dynabeads [1]: 0.421 nM
- EC50, activation of human Daudi cells (CD70 expression) with FAP-coated Dynabeads [2]: 0.166 nM
- binding result [3]: no binding (tested: 500 nM)
- binding result [4]: no binding (tested: 500 nM)
- EC50 [5]: 0.031 nM
B1: P1AD4574 CD40 × DP47 (4 + 1) (bispecific antibody)
heavy 1: not shown
heavy 2: not shown
light: DIQMTQSPSSLSASVGDRVTITCRSSQSLVHSNGNTFLHWYQQKPGKAPKLLIYTVSNRFSGVPSRFSGSGSGTDFTLTISSLQPEDFATYFCSQTTHVPWTFGQGTKVEIKRTVAAPSVFIFPPSDEQLKSGTASVVCLLNNFYPREAKVQWKVDNALQSGNSQESVTEQDSKDSTYSLSSTLTLSKADYEKHKVYACEVTHQGLSSPVTKSFNRGEC
notes: also called huCD40-DP47

- EC50 [6]: 1.15 nM
- Kd [7]: 2.2 nM
- koff [7]: 0.00145 s⁻¹
- kon [7]: 663000 M⁻¹ s⁻¹
- EC50 (read off the curve) [4]: ~1 nM
B2: P1AE0192 CD40 × FAP (28H1) (1 + 1) Crossmab (bispecific antibody, human IgG1, kappa, L234A L235A)
heavy 1: not shown
heavy 2: EVQLVESGGGLVQPGGSLRLSCAASGYSFTGYYIHWVRQAPGKGLEWVARVIPNAGGTSYNQKFKGRFTLSVDNSKNTAYLQMNSLRAEDTAVYYCAREGIYWWGQGTLVTVSSASTKGPSVFPLAPSSKSTSGGTAALGCLVEDYFPEPVTVSWNSGALTSGVHTFPAVLQSSGLYSLSSVVTVPSSSLGTQTYICNVNHKPSNTKVDEKVEPKSCDKTHTCPPCPAPEAAGGPSVFLFPPKPKDTLMISRTPEVTCVVVDVSHEDPEVKFNWYVDGVEVHNAKTKPREEQYNSTYRVVSVLTVLHQDWLNGKEYKCKVSNKALGAPIEKTISKAKGQPREPQVCTLPPSRDELTKNQVSLSCAVKGFYPSDIAVEWESNGQPENNYKTTPPVLDSDGSFFLVSKLTVDKSRWQQGNVFSCSVMHEALHNRFTQKSLSLSPGK
light 1: B1 light with E128R, Q129K
light 2: EVQLLESGGGLVQPGGSLRLSCAASGFTFSSHAMSWVRQAPGKGLEWVSAIWASGEQYYADSVKGRFTISRDNSKNTLYLQMNSLRAEDTAVYYCAKGWLGNFDYWGQGTLVTVSSASVAAPSVFIFPPSDEQLKSGTASVVCLLNNFYPREAKVQWKVDNALQSGNSQESVTEQDSKDSTYSLSSTLTLSKADYEKHKVYACEVTHQGLSSPVTKSFNRGEC
notes: monovalent for CD40 and for FAP; also called CD40 × FAP 1 + 1; 1+1 format
